According to IntAct's records for PubMed 29039417:

B1: BBSome complex member BBS2 (Homo sapiens), Q9BXC9 (parent)
chain: MLLPVFTLKLRHKISPRMVAIGRYDGTHPCLAAATQTGKVFIHNPHTRNQHVSASRVFQSPLESDVSLLSINQAVSCLTAGVLNPELGYDALLVGTQTNLLAYDVYNNSDLFYREVADGANAIVLGTLGDISSPLAIIGGNCALQGFNHEGSDLFWTVTGDNVNSLALCDFDGDGKKELLVGSEDFDIRVFKEDEIVAEMTETEIVTSLCPMYGSRFGYALSNGTVGVYDKTSRYWRIKSKNHAMSIHAFDLNSDGVNELITGWSNGKVDARSDRTGEVIFKDNFSSAIAGVVEGDYRMDGHIQLICCSVDGEIRGYLPGTAEMRGNLMDTSAEQDLIRELSQKKQNLLLELRNYEENAKAELASPLNEADGHRGIIPANTRLHTTLSVSLGNETQTAHTELRISTSNDTIIRAVLIFAEGIFTGESHVVHPSIHNLSSSICIPIVPPKDVPVDLHLKAFVGYRSSTQFHVFESTRQLPRFSMYALTSLDPASEPISYVNFTIAERAQRVVVWLGQNFLLPEDTHIQNAPFQVCFTSLRNGGHLHIKIKLSGEITINTDDIDLAGDIIQSMASFFAIEDLQVEADFPVYFEELRKVLVKVDEYHSVHQKLSADMADHSNLIRSLLVGAEDARLMRDMKTMKSRYMELYDLNRDLLNGYKIRCNNHTELLGNLKAVNQAIQRAGRLRVGKPKNQVITACRDAIRSNNINTLFKIMRVGTASS
partner: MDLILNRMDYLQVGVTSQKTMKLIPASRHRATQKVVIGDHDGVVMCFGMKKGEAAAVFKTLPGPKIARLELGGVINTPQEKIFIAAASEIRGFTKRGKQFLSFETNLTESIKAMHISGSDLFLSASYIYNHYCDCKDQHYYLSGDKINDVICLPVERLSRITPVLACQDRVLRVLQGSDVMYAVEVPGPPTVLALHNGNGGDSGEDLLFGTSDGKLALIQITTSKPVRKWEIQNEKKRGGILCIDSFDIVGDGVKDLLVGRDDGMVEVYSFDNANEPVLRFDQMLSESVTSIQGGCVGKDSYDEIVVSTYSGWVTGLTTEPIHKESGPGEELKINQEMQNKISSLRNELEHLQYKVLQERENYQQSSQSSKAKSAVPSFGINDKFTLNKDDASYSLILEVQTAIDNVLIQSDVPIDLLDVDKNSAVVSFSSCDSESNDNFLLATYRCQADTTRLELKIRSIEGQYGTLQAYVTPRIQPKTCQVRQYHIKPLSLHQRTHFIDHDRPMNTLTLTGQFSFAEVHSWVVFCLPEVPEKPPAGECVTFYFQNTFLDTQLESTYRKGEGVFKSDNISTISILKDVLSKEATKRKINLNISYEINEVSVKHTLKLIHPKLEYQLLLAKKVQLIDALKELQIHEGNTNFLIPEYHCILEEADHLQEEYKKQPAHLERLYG

Variants of: B1
Settings: with BBS7, Q8IWZ6-2

Variant	effect of a mutation on the interaction
S605E	disrupting interaction strength
S605K	with no effect
S605A	with no effect
L654E	with no effect
L654K	with no effect
L654A	with no effect
K609A	with no effect
K609E	with no effect
V598A	with no effect
V598K	with no effect
V598E	with no effect
I621E	with no effect
I621K	with no effect
I621A	with no effect
L655A	with no effect
L655E	with no effect
L655K	with no effect
D649E	with no effect
D649A	with no effect
D649K	with no effect
H604K	with no effect
H604A	with no effect
H604E	with no effect

Variant	effect of a mutation on the interaction
T639A	with no effect
T639E	with no effect
T639K	with no effect
L624E	with no effect
L624A	with no effect
L624K	with no effect
G657K	with no effect
G657A	with no effect
G657E	with no effect
D636A	with no effect
D636E	with no effect
D636K	disrupting interaction strength
D636G	disrupting interaction strength
H607E	with no effect
H607A	disrupting interaction strength
H607K	with no effect
E629K	with no effect
E629A	with no effect
S642A	with no effect
S642K	with no effect
S642E	with no effect
M634E	with no effect
M634K	with no effect

Variant	effect of a mutation on the interaction
M634A	with no effect
N651E	with no effect
N651A	with no effect
N651K	with no effect
R635A	with no effect
R635E	with no effect
R635C	disrupting interaction strength
R635K	with no effect
M645E	with no effect
M645K	with no effect
M645A	with no effect
L597K	with no effect
L597A	with no effect
L597E	with no effect
L633A	with no effect
L633E	with no effect
L633K	with no effect
L625A	with no effect
L625E	with no effect
L625K	with no effect
D653A	with no effect
D653K	with no effect
D653E	with no effect

Variant	effect of a mutation on the interaction
L610A	disrupting interaction strength
L610E	with no effect
L610K	with no effect
N619A	with no effect
N619K	with no effect
N619E	with no effect
V600E	with no effect
V600A	with no effect
V600K	with no effect
E646A	with no effect
E646K	with no effect
Y603A	with no effect
Y603E	with no effect
Y603K	with no effect
G627K	with no effect
G627E	with no effect
G627A	with no effect
S618A	with no effect
S618K	with no effect
S618E	with no effect
D613A	with no effect
D613E	with no effect
D613K	with no effect

Variant	effect of a mutation on the interaction
S623E	with no effect
S623K	with no effect
S623A	with no effect
R643A	with no effect
R643E	with no effect
R643K	with no effect
M640E	with no effect
M640K	with no effect
M640A	with no effect
V626E	with no effect
V626K	with no effect
V626A	with no effect
A612E	with no effect
A612K	with no effect
Y658E	with no effect
Y658A	with no effect
A628E	with no effect
A628K	disrupting interaction strength
L620E	with no effect
L620A	with no effect
L620K	with no effect
V596A	with no effect
V596K	with no effect

Variant	effect of a mutation on the interaction
V596E	with no effect
L650K	with no effect
L650A	with no effect
L650E	with no effect
Y648E	with no effect
Y648K	with no effect
Y648A	with no effect
R652A	with no effect
R652K	with no effect
R652E	with no effect
K638E	with no effect
K638A	with no effect
Q608K	with no effect
Q608A	with no effect
Q608E	with no effect
K599E	with no effect
K599A	with no effect
N656A	with no effect
N656K	with no effect
N656E	with no effect
R622A	with no effect
R622K	with no effect
R622E	with no effect

Variant	effect of a mutation on the interaction
A615E	with no effect
A615K	with no effect
K641A	with no effect
K641E	with no effect
L647E	disrupting interaction strength
L647A	disrupting interaction strength
L647K	with no effect
Y644E	disrupting interaction strength
Y644K	with no effect
Y644A	with no effect
A631E	with no effect
A631K	with no effect
K595E	with no effect
K595A	with no effect
H617E	with no effect
H617K	with no effect
H617A	with no effect
E602A	with no effect
E602K	with no effect
R632A	with no effect
R632E	with no effect
R632K	with no effect
S611K	with no effect

Variant	effect of a mutation on the interaction
S611E	with no effect
S611A	with no effect
M614K	with no effect
M614E	with no effect
M614A	with no effect
D601K	with no effect
D601E	with no effect
D601A	with no effect
D630K	with no effect
D630E	with no effect
D630A	with no effect
V606K	with no effect
V606E	with no effect
V606A	with no effect
D616A	with no effect
D616E	with no effect
D616K	with no effect
M637K	with no effect
M637S	disrupting interaction strength
M637A	with no effect
M637E	with no effect
